Experimental data from patent US20220259289A1 (Janssen / Centocor, published 2022).
Residue numbers refer to the chain shown, from its start. Values belong to the binder of their own block, whether it stands above or below them.

Assays:
Experiment in all cases: ELISA, bacterial lysate on plate-bound antigen, luminescence
[1] = biological target: unrelated Fc-fused recombinant protein (negative control)
human serum albumin = biological target: T1, human serum albumin (human, UniProt P02768 25-609)
T1 construct: Negative control antigen of the screening ELISA; also called HSA
Protocol: (§1) Streptavidin-coated Maxisorp plates (Nunc catalog 436110) were blocked for 1 h in Starting Block T20 (Pierce) and then coated with biotinylated CD137 (using same antigen as in panning) or negative controls (an unrelated Fc-fused recombinant protein and human serum albumin) for 1 h. Plates were rinsed with TBST and diluted lysate was applied to plates for 1 h. Following additional rinses, wells were treated with HRP-conjugated anti-Centyrin antibody (PAB25) for 1 h and then assayed with POD (Roche catalog 11582950001).

[2] = biological target: T2, recombinant biotinylated human CD137 protein (Fc-fusion protein, R&D Systems 838-4B) (human, UniProt Q07011 24-186, biotinylated (site not stated))
T2 construct: Bought Fc fusion; The ELISA used the same antigen as the panning; also called CD137-Fc; biotinylated CD137; not shown: Fc part of the bought fusion protein
Protocol: as §1

T1 sequence (P02768 25-609 limits assumed): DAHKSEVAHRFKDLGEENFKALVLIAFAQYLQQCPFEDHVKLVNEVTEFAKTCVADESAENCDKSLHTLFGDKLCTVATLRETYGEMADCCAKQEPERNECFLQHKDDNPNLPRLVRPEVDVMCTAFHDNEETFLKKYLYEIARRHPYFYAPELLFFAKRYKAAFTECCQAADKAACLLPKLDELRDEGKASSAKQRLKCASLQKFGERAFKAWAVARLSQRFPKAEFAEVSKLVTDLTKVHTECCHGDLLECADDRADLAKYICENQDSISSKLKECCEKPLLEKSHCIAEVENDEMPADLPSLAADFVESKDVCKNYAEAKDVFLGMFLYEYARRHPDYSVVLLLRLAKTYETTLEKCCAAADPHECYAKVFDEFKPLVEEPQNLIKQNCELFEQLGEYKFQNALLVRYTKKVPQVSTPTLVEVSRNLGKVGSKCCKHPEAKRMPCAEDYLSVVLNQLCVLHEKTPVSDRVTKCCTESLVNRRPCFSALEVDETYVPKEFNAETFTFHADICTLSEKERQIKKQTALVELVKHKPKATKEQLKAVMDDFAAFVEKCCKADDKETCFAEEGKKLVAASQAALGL

B1: ISOP120AR5P1C3 (designed binder, not shown: small tags and cut ends)
chain: LPAPKNLVVSRVTEDSARLSWSPVDADFTFDSFLIQYQESEKVGEAIVLTVPGSERSYDLTGLKPGTEYTVSIYGVGRHYTVYDSNPLSAIFTT
notes: FN3 domain (Centyrin); tested as E. coli lysate
ELISA Fc Control (RLU) [1]: 320 RLU
ELISA HSA (RLU) (human serum albumin): 240 RLU
ELISA CD137-Fc (RLU) [2]: 927000 RLU

B4: ISOP120BR5P1C7 (designed binder, not shown: small tags and cut ends)
chain: LPAPKNLVVSRVTEDSARLSWNVTQKEFDSFLIQYQESEKVGEAIVLTVPGSERSYDLTGLKPGTEYTVSIYGVGNRYYTVYDSNPLSAIFTT
notes: as for B1
ELISA Fc Control (RLU) [1]: 880 RLU
ELISA HSA (RLU) (human serum albumin): 240 RLU
ELISA CD137-Fc (RLU) [2]: 306000 RLU

B5: ISOP120BR5P1C1 (designed binder, not shown: small tags and cut ends)
chain: LPAPKNLVVSRVTEDSARLSWVREDAYAFDSFLIQYQESEKVGEAIVLTVPGSERSYDLTGLKPGTEYTVSIYGVSSLHWVVHDSNPLSAIFTT
notes: as for B1
ELISA Fc Control (RLU) [1]: 480 RLU
ELISA HSA (RLU) (human serum albumin): 480 RLU
ELISA CD137-Fc (RLU) [2]: 438000 RLU

B6: ISOP120AR5P1G8 (designed binder, not shown: small tags and cut ends)
chain: LPAPKNLVVSRVTEDSARLSWHATFGDPFDSFLIQYQESEKVGEAIVLTVPGSERSYDLTGLKPGTEYTVSIYGVGRHYTVYDSNPLSAIFTT
notes: as for B1
ELISA Fc Control (RLU) [1]: 320 RLU
ELISA HSA (RLU) (human serum albumin): 320 RLU
ELISA CD137-Fc (RLU) [2]: 541000 RLU

B7: ISOP120AR5P1D9 (designed binder, not shown: small tags and cut ends)
chain: B6 chain with H22N, A23T, T24D, F25W, G26V, D27H, P28T
notes: as for B1
ELISA Fc Control (RLU) [1]: 320 RLU
ELISA HSA (RLU) (human serum albumin): 320 RLU
ELISA CD137-Fc (RLU) [2]: 636000 RLU

B11: ISOP120AR5P1B12 (designed binder, not shown: small tags and cut ends)
chain: LPAPKNLVVSRVTEDSARLSWDGDKWANFKFDSFLIQYQESEKVGEAIVLTVPGSERSYDLTGLKPGTEYTVSIYGVGLHYIVYDSNPLSAIFTT
notes: FN3 domain (Centyrin)
ELISA Fc Control (RLU) [1]: 400 RLU
ELISA HSA (RLU) (human serum albumin): 480 RLU
ELISA CD137-Fc (RLU) [2]: 864000 RLU

B13: ISOP120BR5P1D8 (designed binder, not shown: small tags and cut ends)
chain: LPAPKNLVVSRVTEDSARLSWKNHTQEWEFDSFLIQYQESEKVGEAIVLTVPGSERSYDLTGLKPGTEYTVSIYGVPIAWLAWTSTSNPLSAIFTT
notes: as for B1
ELISA Fc Control (RLU) [1]: 480 RLU
ELISA HSA (RLU) (human serum albumin): 320 RLU
ELISA CD137-Fc (RLU) [2]: 942000 RLU

B15: ISOP120BR5P1D2 (designed binder, not shown: small tags and cut ends)
chain: LPAPKNLVVSRVTEDSARLSWIRKHNHVKWFDSFLIQYQESEKVGEAIVLTVPGSERSYDLTGLKPGTEYTVSIYGVGFLIDTDDSNPLSAIFTT
notes: as for B1
ELISA Fc Control (RLU) [1]: 720 RLU
ELISA HSA (RLU) (human serum albumin): 240 RLU
ELISA CD137-Fc (RLU) [2]: 361000 RLU

Further lines, results first:

ELISA Fc Control (RLU) [1]: 480 RLU
ELISA HSA (RLU) (human serum albumin): 480 RLU
ELISA CD137-Fc (RLU) [2]: 363000 RLU
B2: ISOP120HR5P1E7 (designed binder, not shown: small tags and cut ends)
chain: LPAPKNLVVSRVTEDSARLSWTAPDAAFDSFQIYYLEQLGYGEAIVLTVPGSERSYDLTGLKPGTEYLVTIYGVKVCEQSYPLSAIFTT
notes: as for B1

ELISA Fc Control (RLU) [1]: 320 RLU
ELISA HSA (RLU) (human serum albumin): 400 RLU
ELISA CD137-Fc (RLU) [2]: 779000 RLU
B3: ISOP120BR5P1E6 (designed binder, not shown: small tags and cut ends)
chain: LPAPKNLVVSRVTEDSARLSWLEGANAEFDSFLIQYQESEKVGEAIVLTVPGSERSYDLTGLKPGTEYTVSIYGVHWVGPWYPVSNPLSAIFTT
notes: as for B1

ELISA Fc Control (RLU) [1]: 480 RLU
ELISA HSA (RLU) (human serum albumin): 480 RLU
ELISA CD137-Fc (RLU) [2]: 542000 RLU
B8: ISOP120BR5P1F1 (designed binder, not shown: small tags and cut ends)
chain: LPAPKNLVVSRVTEDSARLSWTFHPTFEGFDSFLIQYQESEKVGEAIVLTVPGSERSYDLTGLKPGTEYTVSIYGVKWTVLRPWLSNPLSAIFTT
notes: as for B1

ELISA Fc Control (RLU) [1]: 400 RLU
ELISA HSA (RLU) (human serum albumin): 240 RLU
ELISA CD137-Fc (RLU) [2]: 299000 RLU
B9: ISOP120BR5P1F2 (designed binder, not shown: small tags and cut ends)
chain: LPAPKNLVVSRVTEDSARLSWTFHPTFEGFDSFLIQYQESEKVGEAIVLTVPGSERSYDLTGLKPGTEYTVSIYGVKWYAGIGYPVSNPLSAIFTT
notes: as for B1

ELISA Fc Control (RLU) [1]: 5680 RLU
ELISA HSA (RLU) (human serum albumin): 4960 RLU
ELISA CD137-Fc (RLU) [2]: 882000 RLU
B10: ISOP120BR5P1E2 (designed binder, not shown: small tags and cut ends)
chain: LPAPKNLVVSRVTEDSARLSWAQELDHFDSFLIQYQESEKVGEAIVLTVPGSERSYDLTGLKPGTEYTVSIYGVYWTWWVRWNSNPLSAIFTT
notes: as for B1

ELISA Fc Control (RLU) [1]: 560 RLU
ELISA HSA (RLU) (human serum albumin): 560 RLU
ELISA CD137-Fc (RLU) [2]: 1.22e+06 RLU
B12: ISOP120BR5P1D9 (designed binder, not shown: small tags and cut ends)
chain: LPAPKNLVVSRVTEDSARLSWTINSHIFDSFLIQYQESEKVGEAIVLTVPGSERSYDLTGLKPGTEYTVSIYGVWGTKYWQAQSNPLSAIFTT
notes: as for B1

ELISA Fc Control (RLU) [1]: 320 RLU
ELISA HSA (RLU) (human serum albumin): 560 RLU
ELISA CD137-Fc (RLU) [2]: 942000 RLU
B14: ISOP120BR5P1E4 (designed binder, not shown: small tags and cut ends)
chain: LPAPKNLVVSRVTEDSARLSWDDQFEDWFDSFLIQYQESEQVGEAIVLTVPGSERSYDLTGLKPGTEYTVSIYGVHTRDWTAWNASNPLSAIFTT
notes: as for B1
